{"source": "patent US10995116B2", "about": "“Peptide-induced NK cell activation” (University of Southampton, priority 2014, dated 2021)", "key": {"[1]": {"molecular_target": "T1, KIR2DS2 (Homo sapiens, UniProt P43631)", "test": "pVav1/Vav1 Western blot, KIR2DS2-transfected NK cell line plus peptide-loaded HLA-C*0304:ICP47:721.221 cells", "assay_type": "cell-based", "design": "expressed in transfected cells; host or cells: NKL cell line transfected with KIR2DS2; target cells L721.221-HLA-C*0304-ICP47", "conditions": "peptide 20 μM, 5 minutes", "experimental": "FIG. 7 1×10^6 L721.221-HLA-C*0304-ICP47 cells were incubated overnight at 26° C. with indicated peptides at a concentration of 20 μM. The cells were then incubated with the NKL cell line transfected with KIR2DS2 or transfected with KIR2DL2 for 5 minutes. The cells were lysed in 1% NP-40 and then analysed by Western blotting using antibodies to pVav1 and then following stripping of the membrane to Vav1. Shown are Western blots around the 98 kDa region, and below them the corresponding densitometries for 2 independent experiments.\nWith reference to FIG. 7, 1×10^6 HLA-C*0304:ICP47:721.221 cells were incubated overnight at 26° C. with indicated peptides at a concentration of 20 μM. The cells were then incubated with the NK cell line transfected with KIR2DS2 for 5 minutes. The cells were lysed in 1% NP-40 and then analysed by Western blotting using antibodies to pVav1 and then following stripping of the membrane to Vav1. Shown is a Western blots around the 98kDa region, and below them the corresponding densitometries for 3 independent experiments."}, "[2]": {"system": "L721.174 cells", "test": "Cytotoxicity of NK cell clones against peptide-loaded L721.174 cells (Live/Dead fixable far-red stain)", "assay_type": "cell-based", "conditions": "KIR2DS2-positive NK cell clones 4, 6, 9 only; not KIR2DS2-negative clone 27", "experimental": "L721.174 cells were incubated in the presence or absence of the peptides VAPWNSFAL (SEQ ID NO: 49) and the LNPSVAATL (SEQ ID NO: 1). The cells were then labeled with the cell tracker orange dye, and then cultured with KIR2DS2-positive NK cell clones (clones 4,6,9) or a KIR2DS2-negative NK cell clone (clone 27). Cytotoxicity was then determined using Live/Dead® fixable far-red stain.\nWith reference to FIG. 3, 3×10^5 L721.174 cells were incubated at 26° C. overnight in the presence or absence of the peptides VAPWNSFAL (SEQ ID NO: 49) and the LNPSVAATL (SEQ ID NO: 1). The cells were then labeled with the cell tracker orange dye, and then cultured for four hours with KIR2DS2-positive NK cell clones (clones 4,6,9) or a KIR2DS2-negative NK cell clone (clone 27). Cytotoxicity was then determined using Live/Dead® fixable far-red stain."}, "[3]": {"system": "NK cells from KIR2DS2-positive or KIR2DS2-negative donor", "test": "CD107a (LAMP) degranulation of CH-L antibody positive NK cells cultured with peptide-loaded L721.174 cells", "assay_type": "cell-based", "experimental": "A. cells were incubated in the presence or absence of peptides, and then cultured with NK cells from either a KIR2DS2-positive or KIR2DS2-negative donor. The level of CD107a (LAMP) expression was measured on NK cells positive for the CH-L antibody. This antibody binds to KIR2DS2, KIR2DL2 and KIR2DL3. B. Summary data from 5 KIR2DS2-positive and 6 KIR2DS2-negative donors tested as per panel A of FIG. 2. To compare the different donors the data are normalized to 100% for the no peptide condition.\nWith reference to FIG. 2A, 3×10^5 L721.174 cells were incubated at 26° C. overnight in the presence or absence of peptides, and then cultured for four hours with NK cells from either a KIR2DS2-positive or KIR2DS2-negative donor. The level of CD107a (LAMP) expression was measured on NK cells positive for the CH-L antibody. This antibody binds to KIR2DS2, KIR2DL2 and KIR2DL3. […] With reference to FIG. 2B, summary data from 5 KIR2DS2-positive and 6 KIR2DS2-negative donors were tested as per panel A of FIG. 2. To compare the different donors the data are normalized to 100% for the no peptide condition."}, "[4]": {"molecular_target": "T1, KIR2DS2", "test": "KIR2DS2-PE tetramer staining of peptide-loaded L721.174 cells by flow cytometry", "assay_type": "binding", "design": "made in house", "conditions": "peptide 200 μM overnight at 26° C.", "experimental": "(SEQ ID NO: 1) peptide. A. The KIR2DS2 protein was expressed with a biotinylation C-terminal tag. Following biotinylation with the BirA enzyme, the KIR2DS2 protein was incubated with streptavidin-phycoerythrin to form fluorescent KIR2DS2-tetramers (KIR2DS2-PE). L721.174 cells were then incubated with indicated peptides. Cells were then stained with KIR2DS2-PE and analysed by flow cytometry. Shown are histogram plots. The bold numbers represent the mean fluorescent staining intensity of the KIR2DS2-PE staining of the cells in the presence of peptide and the non-bold numbers the staining in the absence of peptide. B. Represents the mean and standard error fluorescent intensities of the experiment in “A” following replicate experiments.\nA. L721.174 cells were incubated with indicated peptides. Cells were then stained with KIR2DS2-PE (see FIG. 4) and analysed by flow cytometry. Shown are histogram plots. […]\nWith reference to FIG. 4A, the KIR2DS2 protein was expressed as a recombinant protein with a biotinylation C-terminal tag. […] Cells were then stained with KIR2DS2-PE and analysed by flow cytometry. […]\nWith reference to FIG. 5A, 3×10^5 L721.174 cells were incubated overnight at 26° C. with indicated peptides at a concentration of 200 μM. Cells were then stained with KIR2DS2-PE (see FIG. 4) and analysed by flow cytometry. […]"}, "[5]": {"molecular_target": "HLA-C*0102 (Homo sapiens, UniProt P10321, A176E/A330V/A35S/A97T/C350S/D114A/D33F/L171W/L180R/L218V/M285V/M309V/M331V/P208H/Q277E/Q291P/R121W/R243W/R30K/S123C/S140Y/S297R/T329A/T363A/V272M/V319A)", "test": "HPLC of HLA-C binding peptides eluted from 721.221 cells expressing HLA-C*0102:T2A:E19/3K:LNPSVAATL", "conditions": "peak in the eluate at the retention time of the control peptide", "experimental": "FIG. 8 The MHC class I-negative 721.221 cell line was transfected with a construct expressing HLA-C*0102:T2A:E19/3K:LNPSVAATL (SEQ ID NO: 1). The cells were washed and then the HLA-C binding peptides eluted using 10% acetic acid. The eluate was analysed by HPLC using a C18 column and a 4-60% acetonitrile gradient. The resulting profile was compared to the profile of the LNPSVAATL (SEQ ID NO: 1) peptide alone. The peptide elution peak is indicated with an arrow.\nThe cell line 721.221 expressing HLA-C*0102:T2A:E19/3K:LNPSVAATL. Following elution of the HLA-C binding peptides using 10% acetic acid the peptides were analysed by HPLC using a C18 column and an acetonitrile gradient."}, "[6]": {"molecular_target": "T2, HLA-Cw*0102 (Homo sapiens, UniProt P10321, A176E/A330V/A35S/A97T/C350S/D114A/D33F/L171W/L180R/L218V/M285V/M309V/M331V/P208H/Q277E/Q291P/R121W/R243W/R30K/S123C/S140Y/S297R/T329A/T363A/V272M/V319A)", "test": "Peptide binding to HLA-Cw*0102: cell surface MHC class I staining of L721.174 cells by flow cytometry", "assay_type": "cell-based", "conditions": "increasing peptide concentrations, overnight at 26° C.", "experimental": "The HLA-Cw*0102-positive cell line L721.174 was incubated with increasing concentrations of the LNPSVAATL (SEQ ID NO: 1) peptide or a control peptide VAPWNSLSL (SEQ ID NO: 48). Cells were stained for cell surface of MHC class I and analysed by flow cytometry. The mean fluorescence intensity of cell surface MHC Class I was plotted against the peptide concentration.\nWith reference to FIG. 1, the HLA-Cw*0102-positive cell line L721.174 was incubated with increasing concentrations of the LNPSVAATL (SEQ ID NO: 1) peptide or a control peptide VAPWNSLSL (SEQ ID NO: 48) (known to bind HLA-Cw*0102) overnight at 26° C. 3×10^5 cells were used per condition. Following washing in PBS the cells were stained for cell surface of MHC class I and analysed by flow cytometry. The mean fluorescence intensity of cell surface MHC Class I was plotted against the peptide concentration."}, "[7]": {"system": "DAP12", "test": "DAP12 phosphorylation: KIR2DS2 immunoprecipitation and phosphotyrosine Western blot, NK cell line transfected with KIR2DS2 plus peptide-loaded L721.174 cells", "assay_type": "cell-based", "conditions": "peptide 20 μM, 5 minutes", "experimental": "(§1) FIG. 6 LNPSVAATL (SEQ ID NO: 1) activates NK cells expressing KIR2DS2. A. L721.174 cells were incubated with indicated peptides. The cells were then incubated with the NK cell line transfected with KIR2DS2. The cells were lysed and the KIR2DS2 was then immunoprecipitated from the mixture using the GL183 antibody coupled to protein-G beads. The immune precipitate was analysed by Western blotting using a phosphotyrosine antibody. The membrane was then stripped and reprobed with an antibody to DAP12 the molecule that transduces a positive signal from KIR2DS2. Shown are the regions on the blots at the level of DAP12 (12-15kDa). B. L721.174 cells were incubated with indicated peptides. The cells were then incubated with the NK cell line transfected with KIR2DS2 or transfected with KIR2DL2. The cells were lysed in 1% NP-40 and then analysed by Western blotting using antibodies to pVav1 and then following stripping of the membrane to Vav1. […]\n(§2) With reference to FIG. 6A, 1×10^6 L721.174 cells were incubated overnight at 26° C. with indicated peptides at a concentration of 20 μM. […] The immune precipitate was analysed by Western blotting using a phosphotyrosine antibody. […] The cells were lysed in 1% NP-40 and then analysed by Western blotting using antibodies to pVav1 and then following stripping of the membrane to Vav1. […]"}, "[8]": {"system": "NK cells expressing KIR2DS2", "test": "pVav1/Vav1 Western blot, NK cell line transfected with KIR2DS2 or KIR2DL2 plus peptide-loaded L721.174 cells", "assay_type": "cell-based", "conditions": "peptide 20 μM, 5 minutes", "experimental": "as §1, §2"}, "[9]": {"molecular_target": "T2, HLA-Cw*0102", "conditions": "control peptide, stated as known; cited from earlier work"}}, "note": "Where two headings read alike, the source gives them in different places."}
{"sequence": "GAVPDLAWL (listed as Homo sapiens)", "values": [{"measurement": "activation of KIR2DS2 (pVav1)", "setting": "[1]", "result": "Activated"}]}
{"sequence": "LNPSVAATL (listed as Homo sapiens)", "values": [{"measurement": "killing of L721.174 cells as compared to no peptide or the VAPWNSFAL peptide", "setting": "[2]", "result": "killed the L721.174 cell line to greater extent"}, {"measurement": "level of CD107a degranulation as compared to no peptide", "setting": "[3]; NK cells from KIR2DS2-positive donors", "result": "higher levels of degranulation"}, {"measurement": "level of CD107a degranulation as compared to the VAPWNSFAL peptide alone", "setting": "[3]; NK cells from KIR2DS2-positive donors, LNPSVAATL in combination with VAPWNSFAL", "result": "higher levels of degranulation"}, {"measurement": "KIR2DS2 binding to HLA-C*0102 and peptide (KIR2DS2-PE staining)", "setting": "[4]", "result": "Binds"}, {"measurement": "endogenous processing and presentation from construct", "setting": "[5]", "result": "endogenously processed and presented"}, {"measurement": "binding to HLA-Cw*0102", "setting": "[6]", "result": "Binds"}, {"measurement": "phosphorylation of DAP12", "setting": "[7]", "result": "induces phosphorylation of DAP12"}, {"measurement": "activation of NK cells expressing KIR2DS2", "setting": "[8]", "result": "Activates"}]}
{"sequence": "VAPWNSLSL (listed as Homo sapiens)", "values": [{"measurement": "binding to HLA-Cw*0102", "setting": "[9]", "result": "known to bind"}]}
{"sequence": "GAVPDLATL (listed as Homo sapiens)", "values": [{"measurement": "activation of KIR2DS2 (pVav1)", "setting": "[1]", "result": "Activated"}]}
{"sequence": "VAPWNSFAL (listed as Homo sapiens) [reference compound]", "values": [{"measurement": "level of CD107a degranulation as compared to no peptide", "setting": "[3]; NK cells from both donors (KIR2DS2-positive and KIR2DS2-negative)", "result": "lower levels of degranulation"}]}
